According to the supplement of paper PMC10567573:
± gives the standard deviation.

Experiment: protein stability index of a GFP-peptide fusion (GPS, HEK-293T) (PSI 1-6); higher = more stable
[1] = treatment: DMSO, c terminus: a fixed tail appended
[2] = treatment: MLN4924 1 uM, 8 h, c terminus: a fixed tail appended
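Further: 24-mer peptide tiles fused after GFP, lentivirally expressed, FACS-sorted into six equal bins by GFP/DsRed ratio, decoded by Illumina sequencing, PSI is the read-weighted mean bin number.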

Sequence	protein stability index [1]	protein stability index [2]	protein stability index (treatment: DMSO, c terminus: native)	protein stability index (treatment: MLN4924 1 uM, 8 h, c terminus: native)
IANYELVYKDGEHGEEQRITIEPG [PTPRD]	4.64 ± 0.34	4.8 ± 0.28		
KKCCIPETRRRMEMAFNTRCKEEN [NLN]	3.57 ± 0.25	3.75 ± 0.22		
PFVSAMPTPMPHNKGTRFSEAWEY [ZBED2]	2.88 ± 0.23	2.94 ± 0.11		
LVLQTSEGKALQQYPSERELRGI [TRIM9]			3.01 ± 0.96	2.98 ± 0.54
TQIRTITEEIRDGKVISSREHVQS [KRT36]	4.75 ± 0.088	4.86 ± 0.1		
LDNTKFRSHEGETAYIRVKVDGPR [SRSF1]	3.73 ± 0.34	3.49 ± 0.32		
VQVSPEFKDSAGKSPTGLKLKNDT [ZNF75A]	4.96 ± 0.23	4.91 ± 0.15		
DINLNSPNKGLLSDSMTDVPVDTG [TPD52L2]	4.19 ± 0.2	4.51 ± 0.22		
LSSYISINSDTGVLYALRSFDYEQ [PCDHGA10]	2.12 ± 0.23	2.27 ± 0.092		
IGGSGFLGQHMVEQLLARGYAVNV [NSDHL]	2.16 ± 0.054	2.23 ± 0.2		
APGLYNHLPWQYHAGQGGLFYSAE [CCDC3]	2.69 ± 0.084	3.25 ± 1.1		
GLEQFINKVAGHPLAQNERCLHMF [SNX3]	2.72 ± 0.61	2.21 ± 0.11		
RADCASESACSSDSLDEARSSGSE [PWWP2B]	5.42 ± 0.3	5.53 ± 0.26		
LKRAFEAANLPALVLKIMSGTFAP [NEK8]	2.57 ± 0.59	2.71 ± 0.57		
RVYVSGLMKGGADLFVENMPGFPD [APMAP]	2.56 ± 0.34	2.7 ± 0.35		
GGWETVFRPVSETCTDRSGISTGH [FUT8]	3.48 ± 0.35	3.43 ± 0.22		
PQHVSSDKEVRAASTEADKRLSRF [NLN]	5.3 ± 0.18	5.1 ± 0.22		
RRKIRELQLRYSLRILIGDPPHHD [BEX5]	2.42 ± 0.42	2.07 ± 0.23		
KEDKIMLDDRKNEEDGGADEHEHP [MIA2]	5.52 ± 0.063	5.55 ± 0.19		
GESDNPLRFTSGLVVALDVDATLE [INTS4]	3.23 ± 0.37	3.54 ± 0.15		
VRTLSEPPDKGEEQVNFCESSNDF [ZBTB22]	5.14 ± 0.25	5.26 ± 0.39		
LFSSHPPLGGGVGGQDGLGAPKDQ [KLHL14]	4.89 ± 0.55	4.81 ± 0.049		

Sequence	protein stability index [1]	protein stability index [2]	protein stability index (treatment: DMSO, c terminus: native)	protein stability index (treatment: MLN4924 1 uM, 8 h, c terminus: native)
RNRGRFSSTTGLFYSAEIICAIEY [PRKX]	2.92 ± 0.47	2.91 ± 0.71		
RGENLEHLRNKTEDLEATSEHFKT [VAMP8]	5.43 ± 0.35	5.29 ± 0.12		
LHPLLSGRLGRWLRSTRFSGSLDR [PCDHGC5]	2.46 ± 0.23	2.45 ± 0.54		
LFVLFMFFGMAFNFIVNDSRKKPI [SOAT1]	3.19 ± 0.45	2.99 ± 0.24		
NIHPQVLLPDQARGEVPWSPELGR [ZNF263]	4.12 ± 0.16	4.34 ± 0.21		
LVKQECIKEVVEKREACHCEEVKM [FAN1]	4.54 ± 0.4	4.7 ± 0.23		
MVDSFHRTSLQYGIMCLKRLNYDR [PPFIA4]	1.88 ± 0.15	2.27 ± 0.2		
HLDHYYQEELPALLKALVSELSEH [FCHSD1]	2.3 ± 0.079	2.15 ± 0.37		
CLEPLEQKLQEITRCKSSEEKKPG [TRIM39]	4.89 ± 0.23	5.08 ± 0.18		
RKVLQAVHRGDGANPFQAYLDVDL [RTN2]	3.21 ± 0.26	3.26 ± 0.19		
NPFFAKTLQHWPHIIRIGDLKPTG [DENND6A]	2.21 ± 0.34	2.07 ± 0.23		
KIGNSAFARYPNGVVVHYFCSKEV [VPS39]	2.41 ± 0.48	2.33 ± 0.32		
KVLLSGATFLVTFGNSEKPETMTC [ZFYVE21]	2.43 ± 0.27	2.23 ± 0.72		
RFQDPAAASISDGDCDAREEKQRE [FAM219A]	5.5 ± 0.4	5.46 ± 0.32		
DVKCYQGTDIVRGCDPLVKPVGRQ [ADAMTSL2]	3.68 ± 0.3	3.88 ± 0.27		
ELDGPKQIFFGRRKDMIAEKLAPS [ZNF396]	3.62 ± 0.11	3.62 ± 0.27		
VDQYLALPDVSLGRYAYVRGGGDP [MCOLN1]	3.19 ± 0.26	3.03 ± 0.4		
FKPLNSTPATTTEPPKPTFPAYTQ [ZNF207]	3.84 ± 0.26	3.9 ± 0.14		
FSEEDEEETTSQDWGTPRELTFSY [RTN2]	4.22 ± 0.15	4.22 ± 0.49		
TLNVDRKEKCVSLPDCCHGSELRD [DLC1]	4.15 ± 0.1	4.26 ± 0.15		
MESKRLRLLQEEDRRKKIARMGFN [DCAF4]	3.44 ± 0.36	3.73 ± 0.48		
RHVAPIPSHYDVQDRFRIELSEEG [MOSPD3]	4.34 ± 0.4	4.69 ± 0.21		

Sequence	protein stability index [1]	protein stability index [2]	protein stability index (treatment: DMSO, c terminus: native)	protein stability index (treatment: MLN4924 1 uM, 8 h, c terminus: native)
QPPAITQVHRQGERRRELVRSQTL [SMTNL2]	4.19 ± 0.39	4.57 ± 0.33		
AAMLSMVKYNSCADRPFSAPWWFW [POMT2]	2.31 ± 0.25	2.1 ± 0.31		
EFRDDRDLVMALSAGGHGGLLNDT [KCNA4]	4.06 ± 0.35	3.91 ± 0.23		
YLRFIVSRMKERAIDLNKKGKDNK [ZMYND11]	2.63 ± 0.7	2.05 ± 0.3		
PAPKRGYSSEMKTEDELRVRHLEE [AUH]	5.15 ± 0.48	4.75 ± 0.87		
CKNGETLLGAVNFFVSSINTLVTK [ARFIP2]	2.72 ± 0.75	2.64 ± 0.88		
SVMVMREILDYIFSGQIRLNEDTI [GAN]	2.53 ± 0.51	2.32 ± 0.64		
QDLDSRLRAGSSEFDSEHNLTSNE [RASAL3]	5.52 ± 0.29	5.42 ± 0.19		
PHLPRVMLPGVLAGVSAEESWAGP [SCNN1D]	3.37 ± 0.34	3.4 ± 0.24		
EAGYYFFNGNYKVDSPKNFNIAGT [ADAMTSL2]	2.34 ± 0.35	2.44 ± 0.31		
YSGQITLLKLEQNTCSVITTLKGH [WDFY1]	2.82 ± 0.67	2.38 ± 0.36		
GGLLDEAMLDEISLMDLAIEEGFN [NFE2L1]	4.16 ± 0.21	3.86 ± 0.31		
SASECMQDFNTMFTNCYIYNKPTD [BRD3]	3.1 ± 0.23	3.08 ± 0.45		
EKVSQELKEPLHKALQMLLSQPVT [BCL2L13]	2.88 ± 0.26	3 ± 0.45		
TGPPCDRQWTVSDWGPCSGSCGQG [ADAMTSL2]	3.67 ± 0.45	3.51 ± 0.24		
DEQLNEFHCLWDDSFPEGPERLHA [HDAC6]	4.55 ± 0.3	4.46 ± 0.35		
LSPEVLRKEAYGKPVDIWACGVIL [CAMK2B]	2.62 ± 0.71	2.51 ± 0.4		
QEAKLLHWNGRHKPWDFPSVHNDL [GLT8D2]	3.11 ± 0.19	2.9 ± 0.28		
FVETRLRDLPDTPRRFTFYPCVLA [TRIM39]	2.63 ± 0.68	2.16 ± 0.071		
PERIYQGSSGSYFVKDPQGRIIAV [PI4K2A]	2.78 ± 0.25	2.74 ± 0.46		
RFIIIFEQIRFVMKAHSFVRENVP [SOAT1]	2.51 ± 0.39	2.65 ± 0.56		
